# Data as given in the nanobody polyreactivity screen of Harvey et al. (2022).
# Assay: yeast display, Sf9 membrane polyspecificity reagent, FACS + sequencing; frameworks hold sequencing errors
# In short: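 Nanobodies came from a synthetic yeast display library in Saccharomyces cerevisiae BJ5465, induced with galactose for 36–48 hours and stained for 1 hour at 4 °C with 10% biotinylated, detergent-solubilized Sf9 membrane reagent. Cells were enriched on streptavidin microbeads and then FACS-sorted, with low and high (top ~1%) gates set on anti-HA fluorescence for expression and streptavidin fluorescence for reagent binding. Each polyreactivity label reflects the gate a clone came from. Genes were amplified by colony PCR, sequenced by MiSeq 2 × 250 and filtered by CDR length.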
row,Sequence,polyreactivity (PSR sort gate)
1,QVQLVESGGGLVQAGGSLRLSCAASGSTIVYYAMGWYIQAPGKERELVAAITSGGSTYDADSVKGRCTISRDNAKNTVYLQMNSQKPEDTAVYYCHADWWRGDEAYRMYYWGQGTQVTVSS,low polyreactivity
2,QVQLVESGGGLVQAGGSLRLSCAASGRTFQQNAMGWYRQAPGKERELVAAINSRGGRTYYADSVKGRFTISRDYAKNTVYLQMNSLKPEDTAVYYCAARYYWGQGTQVTVSS,high polyreactivity
3,QVQLVESGGGLVQAGGSLRLSCAASGRIFSEYAMGGDRQAPGKERELVATITSGDSTIYADSVKGRFTISRDNAKNTVYVQMNSLKPDDTAVYYCNPDRFADYDYWGHGTQVTVSS,low polyreactivity
4,QVQLVESGGGLVQAGGSLRLSCAASGSIFYYNTMGRYRQAPGKERELVAAIRFDDGSTYYADSVKGRFTISRDNAKNTVYLQMNSLKPEDTAVYYCAADWIVVSEFGLDYHMDYWGQGTQVTVSS,low polyreactivity
5,QVQLVESGGGLVQAGGSLRLSCAASGFTFVTNAMGWYRQAPGKERELVAAISWNDDDTYYADSVKGRFTISRDNAKNTVYLQMNSLKPEDTAVYYCAKDEYRVKWWGWDIYDYWGQGTQVTVSS,low polyreactivity
6,QVQLVESGGGLVQAGGSLRLSCAASGRIFTYYTMGWYRQAPGKERELVAANDSGSSTYYADSVKGRFTISRDNAKNTVYLQMNSLKPEDTAVYYCAADGVRSLVRRGYWFDYWGQGTQVTVSS,low polyreactivity
7,QVQLVESGGGLVQAGGSLRLSCAASGSIFQYNAMGWYRQVPGKERELVAAITSGGSTYADSVKGRFTISRDNAKNTVYLQMNSLKPEDTAVYYCNADRWFGNYLHLTFLNDYWGQGTQVTVSS,low polyreactivity
8,QVQLVESGAGIVQAGGSLRLSCAASGSTFGINAMGWYRQAPGKEREFVASISWSTGTTYYADSVKGRFTISRDNAKNTVYLQRNSLKPEDTAVYYCAADSSRFYGRPRYYYWGQGTQVTVSS,high polyreactivity
9,QVQLVESGGGLVQAGGSLRLSCAASGITFDGYAMGWNTQAPGKEREFVAAITWNGGSTYYADSVKGRFTISRDNAKNTVYLQMNSLKPEDTAVYYCNADPFTGYDYWGQGTQVTVSS,low polyreactivity
10,QVQLVESGGGLVQAGGSLRLSCAASGITFSNYSMGWYRQAPGKERELVAAISKRGGSTYYADSVKGRFTISRDNAKNTVYLQMNSLKPEDTAVYYCAAAGVRVYVRSGLDYWGQGTQVTVSS,high polyreactivity
11,QVQLVESGGGLVQAGGSLRLSCAASGLIFSYYAMGWYRQAPGKERELVAAISRGGSTNYADSVKGRFTISRDDAKNTVYLQMNSLKPEDTAVYYCAARWQWLNGYYYWGQGTQVTVSS,high polyreactivity
12,QVQLVESGGGLVQAGGSLRLSCAASGFIFKANAMGWYRQAPGKERELVASITFGGDSTYYADSVKGRFTISRDNAKNTVYLQMNSLKPEDTAVYYCNTRRRSYRTYYYWGQGTQVTVLS,low polyreactivity
13,QVQLVESGGGLVQAGGSLRLSCAASGLTFWEYAMGWYRQAPGQERELVAAITRGGNTYYADSVKGRFTISRDNAKNTVSLQMNSLKPEDTAVYYCAARGYYLTGGCRRYYYWGQGTQVTVSS,high polyreactivity
14,QVQLVESGGGLVQAGGSLRLSCAASGSTFYAYTMGWYRQAPGKERELVAAISSGGGTYYADSVKGRFTISRDNAKNTVYLQMNSLKPEDTAVYYCAADPVGYYDPSDYWGQGTQVTVSS,low polyreactivity
15,QVQLVESGGGLVQAGGSLRLSCAASGFTFQNYVMGWYRQAPGKERELVAAINSGGRTYYADSVKGRFTISRDNAKNTVYLQMNSLKPEDTAVYYCNAVQPATYKYRSHVIEYDYWGQGSQVTVSS,high polyreactivity
16,QVQLVESGGGLVQAGGSLRLSCASSGSIFPEYDMVWYRQAPGKERELVASISSGGSSTYYADSVKGRFTISRDNAMNTVYLQMNSLKPEATAVYYCARRRSYKRGFDYWGQGTQVTVSS,low polyreactivity
17,QVQLVESAGGLVQAGGSLRLSCAASGNTFATYAMGWYRQAPGKERELVAAITWTGGRTRYADSVKVRFTISRDNAKNTVYLPMNSLKPEDTAVYYCAAKRYDTTYDSWGQGTQVTVSS,high polyreactivity
18,QVQLVESGGGLVQAGGSLRLSCPASGSIVGYYVMGWYRQAPGKERELVAAISWSSGSTYYADSVKGRFTISRDNAKNTVYLQKNSLKPEDTAVYYCNASNVYFWFVTLEFDYWGQGTQVTVSS,low polyreactivity
19,QVQRVESGVGLVQAGGSLRLRCAASGSIFQSYAMGWYRHAPGKERELVAAITERGGSTYYADSVKGRFTISRDNAKNTVYLQMNSLKPEDTAVYYCAAKAVGLGKSWRGDDYWGQRTQVTVSS,low polyreactivity
20,QVQLQVSGGDLVQAGGSLRLSCAASGTIYGLTSMGWYRQAPGKEREFVAAITDGGNTNYADSVKGRFTISRDNAKNSVYLQMISLTPEDTAVYYCALLFSDEAYYAYCGQGTQVTVSS,low polyreactivity
21,QVQLVESGGGLVQAGGSLRLSCAASGRTFLRYAMGWYRQAPGKERELVAAITSSGGSTFYADSVKGRFTISRDNAKNTVYLQMNSLKPEDSAVYYCAASVGRGYYWGQGTQVTVSS,high polyreactivity

row,Sequence,polyreactivity (PSR sort gate)
1,QVQLVESGGGLVQAGGSLRLSCAASGITLYGNAMGWYRQAPGKERELVAAITGRGGSTYYADSVKGRFTISRDNAKNTVYLQMNSLKPEDTAVYYCNKAQSRSQLYGYWGQGTQVTVSS,high polyreactivity
2,QVQLVESGGGLVQAGGSLRLSCAASGSIIFYYAMGWYRQAPGKERDFVAGITYSGGITYYADSVKGRFTISRDNAKNTVYLQMNSMKPEDTAVYFCDYGGGVYQYGYWGQGTQVTVSS,low polyreactivity
3,QVQRVESGGGLVQAGGSLRLSCAASGLTFEYNAMGWYRQAPGKEREFVATISNGGITSYADSVKGRFTISRDNAKNTVYLQMNSLKPEDTGVYYCAASYADSPTTDQLWLEYDSWGQGTQVTVSS,low polyreactivity
4,QVQLVESGGGLVQAGGSLRLSCAASGFIFWLYAMGWYRKAPVKESELVAAISWSDGSTYYADSVKGRFTISRDNAKNSVYLQMNCLKREDTAVYYCNTVRVHGFPIDRIYDYWGQGTQVTVSS,high polyreactivity
5,QVQLVESGGGLVQAGGSLRLSCAASGITLFGYAMGWYRQAPGKERELVAGISRRGGSTYYADSVKGRFTISRDNAKNTVYLQMNSLKPEDTAVYYCAAVYVQPPATAQHYYYWGQGTQVTVSS,high polyreactivity
6,QVQLVESGGGLVQAGGSLRLSCAASGITFRRYAMGWYRQAPGKERELVASITRGGSTSYADSVKGRFRFSRDNAKNTVYLQMNSLKPEDTAVYYCAADAFRGFYWGQGTQVTVSS,high polyreactivity
7,QVQLVESGGGLVQAGGSLSLICAASGSTFTENAMGWYRQAPGKERELVAVITSSDGTTYYADSVKGRFTISRDNAKNTVYLQMISLKPEDTAVSYCAADPYYFWWRYDFWGQGTQVTVSS,low polyreactivity
8,QVQLVESGGGLVQAGGSLRLSCASSGFTFRYYAMGWYRQAPGKERELVAAITGNGGSTYYADSVKGRFTISRDNAKNTVYFQMNSLKPEDTAVYYCNKPYFTASGDRFGYWGQVTQVTVSS,high polyreactivity
9,QVQLVESGGCLVQAGGSLRLSCAASGYTFSLNAMGWYRQAPGKERELVAAISYSGGSTYYADSVKGRFTISRDNAKNTVYLQMNSLKPEDTAVYYCAVRRPQYSYYWDFDYWGQGTQLTVSS,high polyreactivity
10,QVQLVESGVGLVKAGVSLRLSSDASARIFPHYAMGWYRQAPGKERELFAPINVDGGRTYYPDSVKGRFTISRDNAKNTVYLQLNILKPEDTAVYYCAAKPFLYHDQDYGYAVEFNYWGQGTQVTVSS,low polyreactivity
11,QVQLVESGGGLVQAGGSLRLSCAASGFTFVYYAMGWYRQAPGKERELVAAISRGGSTYYADSVKGRFTISRDNAQNPVYLQMNSLKPEDTAVYYCNAKKSGHYVSYPAYDYWGQGTQVTVSS,low polyreactivity
12,QVQLVESGGGLVQAGGSLRLSCADSGFILWYNAMGWYRQAPGKERELVARIDVRGGSTYYADSVKGRFTISRDNAKNTVYLQMNSLKPEDTAVYYCARKRQGPASRARYDYWGQGTQVTVSS,low polyreactivity
13,QVQLVESGGGLVHAGGSLSLSCAASGRTFTSNAMGWYRQAPGKERELVATINGGVSTYYADSVKGRFTISRDNAKNTVYLQMNSLKPEDTAVYYCARDAYDADPSLWYYTYDYWGQGTQVTVSS,low polyreactivity
14,QVHLVESGGGLVQAGGSLRLSCAASAFIFNRNAMGGYRQAHGKERELVAAISRSGGRTYYADSVKGRFTISRDHAKNTVYIQMNSLKPEDTAVYYCATEGYHGEFDYWGQGTQVTVSS,high polyreactivity
15,QVQLVETRGGLLQAGGSLRLSCDASGRTFAYYAMGRYRQAPGKESELVAAITYSDGSTYYADSVKGRFTISRDNAKNTFYLQMNSLKPEDPSVYYCAKGLSREEPENDYDYWGQGTQVTVSS,low polyreactivity
16,QVQLVESGGGLVQAGGSLRLSCAASGFIFSRYAMGWYRQAPGKERELVAAISIGGSTYYADSVKGRFTISRDNAKNTVYLQMNSLKPEDTAVYDCAVDYRHSSSWNAGPWEMYYWGQGTQVTVSS,low polyreactivity
17,QVQLVESGGGLVQAGGSLRLSCAASGRTFYGYAMGWYRQAPGKERELVASISRDGSTNYADSVKGRFTISRDNAKNTVYLQMYSLKPEDTAVYYCAADIWYYRYPIYYYSYDYWGQGTQVTVSS,low polyreactivity
18,QVQLVESGGGLVQAGGSLRLSCAASGRTFTINAMGWYRQAPGKERELVATIRVSGGSTYYADSVKGRFTISRDNAKNTVYLQMNSLKPEDTAVYYCAKGGTYFYAPAYDYWGQGTQVTVSS,low polyreactivity
19,QVQLVESGGGLVQARGSLRLSCAASGRTFGNYAMGWYRQSPGKERELVASINTGGSTSYADSVKGRFTISRDNAKNTVYFLMNSLKPEDTAVYYCARSFFWYRLHVYWGQGTQVTVSS,low polyreactivity
20,QVQLVESGGGLVQAGGSLRLSCAASGSTFWYYAMGWYRQAPGKERELVATITTSGGNTYYADSVKGRFTISRDNAKNTVYLQMNSLKPEDTAVYYCAARRYRASSRGYGYWGQGTQVTVSS,high polyreactivity
